The source of these data is patent US5990275.

The target of experiment [1] is TAG-72 antigen on a human breast carcinoma extract (human). The experiment is described as follows: competition RIA against 125I-labeled CC49 IgG, human breast carcinoma extract.

Substance “subtilisin BPN' (Type XXVII protease, Sigma) (from UniProt P00782) (enzyme)” came in with a half-life (t1/2) of intact sFv, reverse phase HPLC with CC49/212 single-chain Fv of 2.05 h.

For trypsin (enzyme), in the experiment with CC49/212 single-chain Fv, the half-life (t1/2) of intact sFv, reverse phase HPLC was 3.26 h.

For the substance CC49/218 single-chain Fv (scFv), the fold lower affinity than the CC49/212 sFv in experiment [1] turned out to be 4 fold.
